Broadly, the IC50 is the concentration needed to halve the response being measured. A higher IC50 goes with weaker potency in that assay. For orientation: % Inhibition means the change of the read-out against control, counted positive when it falls. Read a low % Inhibition as a response near the control. What is called koff is the rate constant with which the complex falls apart. The EC50 is the concentration giving half of the maximal effect.

Data on 7 molecules can be found in patent US20200354457A1 (Hoffmann-La Roche, published 2020).

Several values for one entry are separate records, joined by “and”; a condition that tells them apart may be missing. Equal entries are not always repeated.

Assay [1] has as its target T1, biotinylated MCSP antigen (amino acids 1553 to 2184 of matured melanoma-associated chondroitin sulfate … (Homo sapiens (Human), UniProt Q6UVK1 1582-2213, limits assumed, biotin on the C-terminal avi-tag)).
T1 construct: The entry may include the leader; also called recombinant MCSP
T1 sequence: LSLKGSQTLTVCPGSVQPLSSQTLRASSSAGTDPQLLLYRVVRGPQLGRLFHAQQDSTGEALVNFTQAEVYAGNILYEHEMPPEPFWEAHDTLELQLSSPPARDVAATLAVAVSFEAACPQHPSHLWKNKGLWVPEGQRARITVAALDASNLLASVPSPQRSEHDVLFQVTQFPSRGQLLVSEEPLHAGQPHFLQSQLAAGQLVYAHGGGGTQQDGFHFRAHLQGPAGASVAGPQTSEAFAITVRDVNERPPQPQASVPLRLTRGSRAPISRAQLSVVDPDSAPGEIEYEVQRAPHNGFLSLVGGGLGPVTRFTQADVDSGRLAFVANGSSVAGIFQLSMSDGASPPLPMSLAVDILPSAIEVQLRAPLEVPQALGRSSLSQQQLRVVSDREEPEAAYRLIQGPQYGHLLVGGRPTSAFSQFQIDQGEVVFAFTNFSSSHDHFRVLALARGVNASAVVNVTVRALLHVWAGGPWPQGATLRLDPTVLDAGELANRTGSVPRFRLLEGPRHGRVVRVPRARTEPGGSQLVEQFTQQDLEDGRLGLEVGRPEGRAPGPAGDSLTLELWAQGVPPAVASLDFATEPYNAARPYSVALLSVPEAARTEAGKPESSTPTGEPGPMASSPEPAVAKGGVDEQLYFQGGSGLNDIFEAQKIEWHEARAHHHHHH
Description: ELISA, biotinylated MCSP antigen on neutravidin plates, bacterial supernatants, anti-Flag/HRP.

Assay [2] concerns the target T2, biotinylated DR5-Fc-avi (extracellular domain of Death receptor 5, amino acids 1 to 152, fused to human IgG1 … (biotin on the C-terminal avi-tag)).
T2 construct: also called DRS; Death receptor 5 ECD
The assay is described as follows: ELISA, biotinylated DR5 antigen on neutravidin plates, bacterial supernatants, anti-Flag/HRP. (In general: An ELISA detects its analyte on a solid surface through an enzyme-linked reagent.)

Assay [3] deals with T3, recombinant human LAG3 Fc Chimera Protein (R&D Systems, 2319-L3) (human, UniProt P18627 23-450).
T3 construct: Bought reagent
T3 sequence (looked up): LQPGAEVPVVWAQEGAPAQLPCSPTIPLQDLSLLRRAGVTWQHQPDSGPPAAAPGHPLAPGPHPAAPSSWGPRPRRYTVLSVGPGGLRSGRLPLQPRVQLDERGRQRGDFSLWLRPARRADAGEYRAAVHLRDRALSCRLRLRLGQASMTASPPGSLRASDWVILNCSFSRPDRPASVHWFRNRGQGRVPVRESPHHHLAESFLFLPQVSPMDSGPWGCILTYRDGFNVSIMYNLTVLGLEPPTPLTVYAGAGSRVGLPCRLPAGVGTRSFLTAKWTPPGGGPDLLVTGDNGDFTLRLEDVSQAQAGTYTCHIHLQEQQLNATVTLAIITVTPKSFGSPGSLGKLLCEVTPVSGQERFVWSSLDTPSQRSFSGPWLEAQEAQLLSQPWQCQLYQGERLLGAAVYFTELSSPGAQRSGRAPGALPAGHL
Description: SPR (Biacore), aVH-Fc captured by anti-human Fc, human LAG-3 Fc chimera as analyte, 25 C. (Surface plasmon resonance follows binding to a sensor surface in real time, without labels.)

Assay [4] concerns the target T4, soluble human Lag3-IgG1-Fc with biotinylated C-terminal Avi-tag (human, biotin on the C-terminal Avi-tag).
T4 construct: also called LAG3-Fc-avi; biotinylated LAG3-Fc antigen
Description: A375 MHCII competition ELISA, biotinylated Lag3 250 ng/ml; competitor MHCII on A375 cells.

Assay [5] has as its target T4, soluble human Lag3-IgG1-Fc with …. Description: A375 MHCII competition ELISA at 3 µg/ml, biotinylated Lag3 250 ng/ml; competitor MHCII on A375 cells.
Assay [6] has as its target T3, recombinant human LAG3 Fc Chimera …. Description: SPR (Biacore), aVH-Fc captured by anti-human Fc, human LAG-3 Fc chimera as analyte, 25 C; * poor fit.
Assay [7] addresses T5, murine LAG3-Fc antigen (R&D Systems, 3328-L3-050) (murine, UniProt Q61790 24-442).
T5 construct: Bought reagent
T5 sequence (looked up): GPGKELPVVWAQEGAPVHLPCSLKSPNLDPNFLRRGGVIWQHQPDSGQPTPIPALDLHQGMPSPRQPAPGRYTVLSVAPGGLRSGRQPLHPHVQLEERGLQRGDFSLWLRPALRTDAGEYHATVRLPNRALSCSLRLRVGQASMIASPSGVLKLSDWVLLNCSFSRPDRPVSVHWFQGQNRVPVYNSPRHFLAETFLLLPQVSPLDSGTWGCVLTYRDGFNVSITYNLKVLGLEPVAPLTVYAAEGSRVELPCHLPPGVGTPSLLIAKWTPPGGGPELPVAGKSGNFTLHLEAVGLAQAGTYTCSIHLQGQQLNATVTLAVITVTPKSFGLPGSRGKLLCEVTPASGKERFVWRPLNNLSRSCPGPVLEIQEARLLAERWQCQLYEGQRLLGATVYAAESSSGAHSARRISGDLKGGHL
The assay is described as follows: ELISA using murine LAG3-Fc antigen.

Assay [8] addresses T3, recombinant human LAG3 Fc Chimera …. Description: ELISA, plate coated with human LAG3 Fc chimera.
The target of assay [9] is T6, human LAG3 on recombinant CHO cells (human, UniProt P18627 23-525).
T6 construct: whole, on cells; also called Lag3 cells; recombinant CHO cells expressing Lag3
T6 sequence (looked up): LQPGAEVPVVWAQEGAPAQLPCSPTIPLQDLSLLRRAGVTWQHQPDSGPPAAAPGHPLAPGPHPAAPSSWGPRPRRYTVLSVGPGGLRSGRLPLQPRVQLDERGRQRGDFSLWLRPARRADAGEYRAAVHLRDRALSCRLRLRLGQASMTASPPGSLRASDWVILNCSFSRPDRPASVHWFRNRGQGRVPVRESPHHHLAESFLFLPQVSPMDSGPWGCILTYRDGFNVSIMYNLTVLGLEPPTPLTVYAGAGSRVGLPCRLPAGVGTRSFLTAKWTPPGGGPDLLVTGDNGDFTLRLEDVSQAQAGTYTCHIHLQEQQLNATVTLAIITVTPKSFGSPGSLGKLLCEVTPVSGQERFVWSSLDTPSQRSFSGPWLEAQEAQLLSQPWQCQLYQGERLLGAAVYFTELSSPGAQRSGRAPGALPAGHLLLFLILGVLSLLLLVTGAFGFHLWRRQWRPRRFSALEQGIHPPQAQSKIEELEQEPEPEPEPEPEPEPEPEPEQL
The assay is described as follows: cell ELISA on CHO cells expressing human LAG3.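 Also: bivalent Fc-format binders titrated in threefold steps from 6 µg/mL, incubated with the cells 2 h at 4 °C, bound antibody detected by HRP-coupled anti-human IgG.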

Assay [10] deals with T3, recombinant human LAG3 Fc Chimera …. The assay is described as follows: SPR (Biacore), antibody captured by anti-human Fc, human LAG-3 Fc chimera as analyte, 25 C.

B1: SEQ ID NO 59 (VHH)
VHH: EVQLVESGGGLVQPGGSLRLSCAASSFNIKDTYIGWVRRAPGKGTELVADIYCSEGSTRYADSVKGRFTISCDTSKNTAYLQMNSLRAEDTAVYYCAAVSDYVVFYYWGQGTTVTVSS
notes: is one of clones 3, 25, 44, 57.1; also called MCSP-specific aVH
As to B1, in [1], the binding result was “binds”.

B2: SEQ ID NO 22 (VHH)
VHH: EVQLVESGGGLVQPGGSLRLSCAASGFNIKDTYIGWVRRAPGKGEELVARIYPTNGYTRYADSVKGRFTISADTSKNTAYLQMNSLRAEDTAVYYCAKYVRYFDYWGQGTLVTVSS
notes: Tested as bacterial supernatant; the range 21-28 may alternate DNA and protein entries
In the case of B2, the binding result in assay [2] is listed as “binds”.

B3: bivalent P11A2 aVH-Fc (Fc fusion)
chain: EVQLVESGGGLVQPGGSLRLSCAASSFNIKDTYIGWVRRAPGKGTELVAEIACHEGTTRYADSVKGRFTISCDTSKNTAYLQMNSLRAEDTAVYYCANTEYDDIFDYWGQGTTVTVSSGGGGSGGGGSDKTHTCPPCPAPEAAGGPSVFLFPPKPKDTLMISRTPEVTCVVVDVSHEDPEVKFNWYVDGVEVHNAKTKPREEQYNSTYRVVSVLTVLHQDWLNGKEYKCKVSNKALGAPIEKTISKAKGQPREPQVYTLPPSRDELTKNQVSLTCLVKGFYPSDIAVEWESNGQPENNYKTTPPVLDSDGSFFLYSKLTVDKSRWQQGNVFSCSVMHEALHNHYTQKSLSLSPGK
Consider B3, for which the t1/2 in assay [3] turned out to be 2.4 min. Further, the IC50 in assay [4] was 0.0903 µg/mL and 1.2 nM. In addition, the “% Inhibition” value in assay [5] is 92.4%. In assay [6], the koff amounted to 0.0048 s⁻¹. The binding result in assay [7] is “no binding”. Besides, the results for the OD max in [8] and in [9] were 1.3 OD and 1.2 OD, respectively. The EC50 in assay [9] was 0.0169 µg/mL and 0.2 nM.

B4: control antibody MDX25F7 (antibody, V domains shown)
VH: QVQLQQWGAGLLKPSETLSLTCAVYGGSFSDYYWNWIRQPPGKGLEWIGEINHNGNTNSNPSLKSRVTLSLDTSKNQFSLKLRSVTAADTAVYYCAFGYSDYEYNWFDPWGQGTLVTVSS
VL: EIVLTQSPATLSLSPGERATLSCRASQSISSYLAWYQQKPGQAPRLLIYDASNRATGIPARFSGSGSGTDFTLTISSLEPEDFAVYYCQQRSNWPLTFGQGTNLEIK
B4: the IC50 in assay [4] is 0.127 µg/mL and 0.8 nM. Besides, in [10], the koff was found to be 0.00039 s⁻¹ and the t1/2 is 30 min. Moreover, the “% Inhibition” value in [5] is 90.4%. Besides, in assay [8], the EC50 is 0.0031 µg/mL and 0.02 nM; the OD max is 3.39 OD. In [9], the OD max was found to be 2.06 OD.

B5: SEQ ID NO 24 (VHH)
VHH: EVQLVESGGGLVQPGGSLRLSCAASGFNIKDTYIGWVRRAPGKGEELVARIYPTNGYTRYADSVKGRFTISADTSKNTAYLQMNSLRAEDTAVYYCAKYYPRTYLDFDYWGQGTLVTVSS
notes: as for B2
For the molecule B5, the binding result in assay [2] is on record as “binds”.

B6: SEQ ID NO 61 (VHH)
VHH: EVQLVESGGGLVQPGGSLRLSCAASSFNIKDTYIGWVRRAPGKGTELVAGIYCEAGITRYADSVKGRFTISCDTSKNTAYLQMNSLRAEDTAVYYCAGKGIGNYFDYWGQGTTVTVSS
notes: as for B1
For the molecule B6, the binding result in assay [1] is “binds”.

B7: SEQ ID NO 28 (VHH)
VHH: EVQLVESGGGLVQPGGSLRLSCAASGFNIKDTYIGWVRRAPGKGEELVARIYPTNGYTRYADSVKGRFTISADTSKNTAYLQMNSLRAEDTAVYYCAKRSHYSYFDYWGQGTLVTVSS
notes: as for B2
Regarding B7, in [2], the binding result is on record as “binds”.
